Measured values reported in PMC4207752 (2014).

Target: F-actin (skeletal muscle) (Oryctolagus cuniculus, UniProt P68135)
Assay: co-sedimentation assay

Kd: ~45 µM
B1: dystrophin N-ABD K18N 1-246 (protein)
chain: MLWWEEVEDCYEREDVQNKTFTKWVNAQFSKFGKQHIENLFSDLQDGRRLLDLLEGLTGQKLPKEKGSTRVHALNNVNKALRVLQNNNVDLVNIGSTDIVDGNHKLTLGLIWNIILHWQVKNVMKNIMAGLQQTNSEKILLSWVRQSTRNYPQVNVINFTTSWSDGLALNALIHSHRPDLFDWNSVVCQQSATQRLEHAFNIARYQLGIEKLLDPEDVDTTYPDKKSILMYITSLFQVLPQQVSIE
